# Source: a protein production outcome set (Wang et al. 2014)
# Experiment: label from the status in PepcDB records
sequence,measurement,value
MYLAEALAQRVEAQRRYSELNQLLLDVAKVQEGDQPAENPHEILTELEELTTRINDLVRRINRTNSVTEFSEGMTLADALSVRDALLKKRTLYSDLADQLTSRQDRYSRSEIKYVATMDAREIRKKADLAAKEYRQLDVDIQRLNWQTELQ,protein production,failed
GRYEIRFSGAGGQGLILAGVIMAEAASIYDGKQAVQSQSYGPEARGGASKSEVIISDGPVDYPKATQCDALLALTQEACDKYSADLKEGGVLLVDSDLVTKLPPGNYQTTAFNIINTAKNDVGREIVANIVALGAMVALTGVVSKEAAEKAVLSRVPEAFVELNRKAFQMGFEKALAAKK,protein production,not failed
MNKEMTLLPPPELVQYVGGDFKKVGKEFLKHFIQIGALKSNEKVLDVGCGVGRMAVPLMNYLNDDGAYYGFDLFKDGITWCQNNISTMRNNFHFEHVDIYNQFYNPEGKEDASQYRFPYEDGTFDFIFLTSVFTHLLPKELEHYVSEIVRVLKKDGRCFITFFLINPESSYYLNAGQSTLGFYHRIENCYVVNKDIPNFAVAYPETDICNLLNKYGLEIINKPHYGLWCGRHEYTSYQDIVLTKKSLEHHHHHH,protein production,failed
MEIKDLKRLARYNPEKMAKIPVFQSERMLYDLYALLPGQAQKVHVHEGSDKVYYALEGEVVVRVGEEEALLAPGMAAFAPAGAPHGVRNESASPALLLVVTAPRP,protein production,not failed
MYLRPDEVARVLEKVGFTVDVVTQKAYGYRRGENYVYVNREARMGRTALVIHPTLKERSSTLAEPASDIKTCDHYQQFPLYLAGERHEHYGIPHGFSSRVALERYLNGLFGEAS,protein production,failed
AGVMTGAKFTQIQFGMTRQQVLDIAGAENCETGGSFGDSIHCRGHAAGDYYAYATFGFTSAAADAKVDSKSQEKLLAPSAPTLTLAKFNQVTVGMTRAQVLATVGQGSCTTWSEYYPAYPSTAGVTLSLSCFDVDGYSSTGAYRGSAHLWFTDGVLQGKRQWDLV,protein production,not failed
MVKAYQRYDAATSFGVISSVDSNIAYDSTGKYVLAPALEKVGIWHVRQGVCSKTLTPSSSRGGPSLAVTSIASSASSLVAVGYADGSIRIWDTEKGTCEVNFNSHKGAVTALRYNKVGSMLASGSKDNDIILWDVVGESGLFRLRGHRDQVTDLVFLDGGKKLVSSSKDKFLRVWDLETQHCMQIVSGHHSEVWSVDTDPEERYVVTGSADQELRFYAVKEYSSNGSLVSDSNANEIKASEEHSTENKWEILKLFGEIQRQTKDRVARVRFNVSGKLLACQMAGKTIEIFRVLDEAEAKQKAKRRLRRKEKKSSKVGDENSTANGEASAKIELADAVSSPTVLDVFKLLQVIRAGRKISSFSFCPTAPKESLGTLALSLNNNSLEFYSLKSSENAKTVTIEHQGHRSDVRSVTLSEDNTLLMSTSHSEVKIWNPSTGSCLRTIDSGYGLCSLIVPQNKYGIVGTKSGVLEIIDIGSATKVEEVKAHGGTIWSITPIPNDSGFVTVSADHEVKFWEYQVKQKSGKATKKLTVSNVKSMKMNDDVLAVAISPDAKHIAVALLDSTVKVFYMDSLKFYLSLYGHKLPVMCIDISSDGELIVTGSQDKNLKIWGLDFGDCHKSIFAHGDSVMGVKFVRNTHYLFSIGKDRLVKYWDADKFEHLLTLEGHHAEIWCLAISNRGDFLVTGSHDRSMRRWDRSEEPFFLEEEKEKRLEELFESEIDNAADDRHGPMEEIPEEGVAALAGKKTIDVLSAADSIIDALEVAEDETKRHAAYEEEKTKGKVPEYLPNAVMFGLSPSEYVLRAISNVRTNDLEQTLLALPFSDSLKFLCYMKDWSLIPEKVELVSRIATIILQTHHNQLVTTPSARPILSVLRDILYSEIKACKDTIGFNLAAMDHVKQMMDARSDAPFKDAKAKLLEIRSQQAKRMASRGDTKMEKKRKKKQKKLEEGQHGHALF,protein production,failed
MKKIVILIISVLLLGGIIGGVYYFKNANKIGADASYVKITKDPTKSNEISFNNNYTLPAYDENGKETEVTFSADKELRKGAYLKLYIKEDKGVTSFEEVPEKEVPAKAAEKLKLEHHHHHH,protein production,failed
EKQSIHRTQLEALDSVITDLETSAQKGISLTEPEIFASLLETCYSLRAIDHGVRVHHLIPPYLLRNNLGISSKLVRLYASCGYAEVAHEVFDRMSKRDSSPFAWNSLISGYAELGQYEDAMALYFQMAEDGVKPDRFTFPRVLKACGGIGSVQIGEAIHRDLVKEGFGYDVYVLNALVVMYAKCGDIVKARNVFDMIPHKDYVSWNSMLTGYLHHGLLHEALDIFRLMVQNGIEPDKVAISSVLARVLSFKHGRQLHGWVIRRGMEWELSVANALIVLYSKRGQLGQACFIFDQMLERDTVSWNAIISAHSKNSNGLKYFEQMHRANAKPDGITFVSVLSLCANTGMVEDGERLFSLMSKEYGIDPKMEHYACMVNLYGRAGMMEEAYSMIVQEMGLEAGPTVWGALLYACYLHGNTDIGEVAAQRLFELEPDNEHNFELLIRIYSKAKRAEDVERVRQMMVDRGLET,protein production,not failed
MTIMAGCMLVLPVMDAIAKYMAVSVGMSPAQVTFYRFFFQVLCTLPLLLVVSPGALFSAKRPWMNCLRGVLHASASLMFFAAVKYMPLADVFAIYFVEPFMLTMMSALFLGDRVGWKRWTAIVVGFGGALIVIQPSFEIFGWTSLLPVACAFFYTLYLFLNRAIGDADSPLVMQTMSGIAGTLFMAAALFAGDALGDKDFAVSLPQSAFALVLLVLLGSLSGYMHLLIVRAFRLAPLSLLAPFQYFEIISATILGYALFSDFPTPSKWLGILIIVASGLFIIWRERQQPASTPPLEGQ,protein production,failed
MTEVSFFLSDNNWYFVVVINNKDFCMKCHRLNEVMELLHPVWEENSDLNLVQLLQKLADEAGFKGQLSDLTDDILIYHLKMRGSAPTEVIPGLKKDYEEDFKTAILRARGVIKD,protein production,failed
MKKFILIMVLGSALFTGGAIYDGIDNQDMTQPTIHFWEKNPMKLNLYAKGQCTYYVFDRIRQDGNMISNRWGDAKYWANEASKEGYKVNDNPSVGSILQYPKGQHGHVAYVDKVNHDGSLTVFDMNYRKPYEVTKRTVYEYQVDEFNYIHPKKNQSENA,protein production,failed
SAGTGVVAVYGEGAMTETKQKSPFSVKVGLAQMLRGGVIMDVVNAEQARIAEEAGACAVMALERVPADIRAQGGVARMSDPEMIKEIKNAVTIPVMAKARIGHFVEAQILEAIGVDYVDESEVLTLADEDNHINKHNFKIPFVCGCRNLGEALRRIREGAAMIRTKGEAGTGNVVEAVRHVRSVNGAIRLLRSMDDDEVFTYAKKIAAPYDLVVQTKELGRLPVVQFAAGGVATPADAALMMQLGCDGVFVGSGVFKSGDPVKRAKAIVQAVTNYRDAAVLAEVSCGLGEAMVGLNLDDKVERFASRSE,protein production,not failed
MDIKNGLFIIGVIPTILFAVLTFIFWWKIRKLKDLRTLRLGRLSFFALLFLWITINGIIGSGLVLTELHQNVLLLLLIAEAVVMFLIIPMIIGIIVPISIVVLTIKMWRRESKSIGNLLLAIVVLTFLVVDWIHLSMGRLPDSWIWLKILGMVYPILSIYLAWQFGIFFLSSWVYGRRVRKQRANYYVVLGAGLIQGEHVGKLLGNRILAAVKAVRDNETILVFSGGQGPDEKVSEARAMQRYAVEVLGFPIERTMLEDQSRTTYENLFFSSQLIREKFLFFTSDYHVFRAALFAAMLKLEAQGGKGGKTAMYYRVPAFIREFIAVLNYEKKKHMIRVGIIVAIFLSIAIVSQIGYFWNQR,protein production,failed
MEDGHISSWWVVDLGEEHQLMCNYYTFRQDGSRAFTRFWKFQGSMDGKTWTDLRVHEDDQTMCKAGQFASWPITAANALLPFRFFRLVLTGPTADTSTPWNFCICYLELYGYFR,protein production,failed
MEGKTLIVSVLIMSLFMAQNQVDANICCPSIQARTFYNACLFAVGSPSSCIRNSSCLDISESTCPRGYTNDILENTGDAVTEYCKLGCVSSVCGALTILQNSDASEIVNGEVEKCTMACSTVCTKGSMNAVENA,protein production,failed
SLSPAELHADSIVIDGLIIAKWNRELFEDMRKGGLTAANCTVSVWEGFQATVNNIVASNKLIRDNSDLVIPVRSTADIRKAKEQGKTGILYGFQNAHAFEDQIGYVEVFKQLGVGIVQMCYNTQNLVGTGCYERDGGLSGFGREIVAEMNRVGIMCDLSHVGSKTSEEVILESKKPVCYSHCLPSGLKEHPRNKSDEELKFIADHGGFVGVTMFAPFLKKGIDSTIDDYAEAIEYVMNIVGEDAIGIGTDFTQGHGHDFFEWLTHDKGYARRLTNFGKIVNPLGIRTVGEFPNLTETLLKRGMPERVVRKVMGENWVRVLRDVWGE,protein production,not failed
GPSRMRHERVVIIKNMFHPMDFEDDPLVLNEIREDLRVECSKFGQIRKLLLFDRHPDGVASVSFRDPEEADYCIQTLDGRWFGGRQITAQAWDGTTDYQ,protein production,not failed
MGHHHHHHSHMLPVELVRHDVKKTDETSQVELMLQVDPDLFWFNGHFTGQPLLPGVAQLDWVMHYATTVLAQGWTFLSIENIKFQQPILPGKTLRLVLIWHAGKQSLTFSYSILEGDTERTASSGKIKLTPIMEDNPCQ,protein production,not failed
MGEMTLAFIEEQYKELDNLNNKENPAVLTRNTATGELLVRKIIPISFAPVLEELKKLSSNYLPKIEVMIPNGSELIVYEEYINGKNLADLMKVNAPFDADEVTGLMLMLSDALTELHTNAIIHRDIKPSNIMISSDGVLKLIDFDASRVFEVGKNQDTVNLGTIGYAAPEQYGYSQTDARSDIYSIGVLMLELLRGKNNLPDKETATSLEKIAMQAASFDPEQRFQTIQEFRTAIKNDSLGPTFVSELTNLSDFATIEDSADEINWATSTDEYEKDFIPWYKHIPGFRTGHTWKMVVAVLGYIFMAFGLFTPPTEGVKMNNIENFFANFFLIFPAFIIFTNLCGIWSKLPLLKSSSKGTRKVGIVVYIFVCIMIYGIYTEIFS,protein production,failed
MNMGMVTLAAIRSVPMATTYIRGGTVVSPTGCQDLDVLIDGERIAALVDPELAPFDDPDRTFDHVLEAKGKYVIPGGVDAHTHMEMPFGGTVASDTFETGTRAAAFGGTTTIIDFAIQRQGERVQDTLAAWHAKARGNCAVDYGFHQILGGVDTDALKAMDELVAEGVTSFKLFMAYPGVYYSDDGQILRAMQQCAGNGALTMMHAENGIAIDQLVAQHIERGETSPYYHGVSRPWELEEEATHRAIMLAKITGAPLYVVHVSAKQAMEQIAGARGSGANVFAETCPQYLYLSLEEQLAAPGFEGAKWVCSTPLRSHEEGHQEELWRYIRTGDVATVSTDHCPFCFKGQKEMGLGDFSKIPNGMSGVEHRIDLMYQGVVNGKLSLQRWVDVCATTPARMFGLYPRKGIVSPGADADVVIYDPDGRTSIGFEKNHHSNVDHSTWEGFEVEGCVQTVLSRGTIVVDRGRYLGRKGHGVFLKRGLSQYLI,protein production,failed
MKVLLANPRGFCAGVDRAIEIVKRTIDMLGTPIYVRHEVVHNRFVVDDLKQRGAIFVEELHQVPDGATVIFSAHGVSQAVRRQAAQRGLKVFDATCPLVTKVHLDVARHCRTGRDMILIGHAGHPEVEGTMGQWDQERGTGRIYLVENIDDVATLHVAQPHHLAYTTQTTLSVDDTRNIIDALRQRFPTIQGPKNNDICYATQNRQDAVRELARECDLVLVVGSPNSSNSNRLSELAQREGVASYLIDSAAEIDPAWVIDKHHIGVTAGASAPQVLVDGVLARLYELGATSVSEHSGKPESMVFALPKALRLQLVD,protein production,failed
MANKTIAQTGSATSPTTNKSGTYVEVPLQDTIPIIFVPGIMGSNIFNTVLGKPVWMIGNGISGQVKTLTKQMGKTPAELQTELDPLNTRVDTSGDIKVDRRLKLTEKTLRERYWGTVHWDSYGGILTYLQMVLNNVDLNEKPIYTTGLGGGYAAVQQMKQQEAVYEWKSLLNQTESSKWFPQQSFVPINQQEIEHLKKFHFPVYAMGYNWLQSSENGAALVAQKLDKIKQEYGARFHKFIIVTHSMGGLLTRRLVQLCSADIAGVV,protein production,failed
